Assay results published in patent US7514534 (DYAX, dated 2009).
Where a chain is given by its changes, count along the chain named.

B1: B04 (antibody, human IgG4, V domains shown)
VH: EVQLLESGGGLVQPGGSLRLSCAASGFTFSFYWMMWVRQAPGKGLEWVSGISSSGGFTKYADSVKGRFTISRDNSKNTLYLQMNSLRAEDTAVYYCARETSRRAFDIWGQGTMVTVSS
VL: DIQMTQSPSSVSASVGDRVTITCRASQGISKSLAWYQQKPGKAPKLLVYGAFSLESGVPSRFSGTGAGTDFILTISRLQPEDFATYYCQQANSFPLTFGGGTKVEIKR
notes: whole human IgG4
B2: B07 (antibody, human IgG4, V domains shown)
VH: EVQLLESGGGLVQPGGSLRLSCAASGFTFSQYQMIWVRQAPGKGLEWVSVIVPSGGITNYADSVKGRFTISRDNSKNTLYLQMNSLRAEDTAVYYCARGGVEAVDSSSPDYWGQGTLVTVSS
VL: DIQMTQSPATLSLSPGERATLSCRASQSVSSYLAWYQQKPGQAPRLLIYDASNRATGIPARFSGSGSGTDFTLTISSLEPEDFAVYYCQQRSNWPRTFGGGTKVEIKR
notes: whole human IgG4
B3: H6-orig (antibody, human IgG4, V domains shown)
VH: EVQLLESGGGLVQPGGSLRLSCAASGFTFSQYWMNWVRQAPGKGLEWVSGIGPSGGITYYADSVKGRFTISRDNSKNTLYLQMNSLRAEDTAVYYCARGEEDGYNSDYWGQGTLVTVSS
VL: QSELTQPPSASGSPGQSVTISCTGTSSDVGAYNYVSWYQQHPGKAPKLIIYEVNKRPSGVPDRFSASKSGNTASLTVSGLQAEDEADYYCNSYAGSNSLIFGGGTKLTVLG
notes: whole human IgG4
B4: D6-orig (antibody, human IgG4, V domains shown)
VH: EVQLLESGGGLVQPGGSLRLSCAASGFTFSMYSMRWVRQAPGKGLEWVSSIYPSGGSTEYADSVKGRFTISRDNSKNTLYLQMNSLRAEDTAVYYCAREGGENDYWGQGTLVTVSS
VL: DIQMTQSPLSLSASVGDRVAITCRASQSIDTYLNWYQQKPGKAPKLLIYAASKLEDGVPSRFSGSGTGTDFTLTIRSLQPEDFASYFCQQSYSSPGITFGPGTKVEIKR
notes: whole human IgG4
B5: B02 (antibody, human IgG4, V domains shown)
VH: EVQLLESGGGLVQPGGSLRLSCAASGFTFSDYFMKWVRQAPGKGLEWVSSIYPSGGPTKYADSVKGRFTISRDNSKNTLYLQMNSLRAEDTAVYYCARERSSGWYGYYYYGMDVWGQGTTVTVSS
VL: B4 VL with L9S
notes: whole human IgG4
B6: A1-orig (antibody, human IgG4, V domains shown)
VH: EVQLLESGGGLVQPGGSLRLSCAASGFTFSYYRMSWVRQAPGKGLEWVSSIGPSGGDTLYADSVKGRFTISRDNSKNTLYLQMNSLRAEDTAVYYCARSFSSGPYYFDYWGQGTLVTVSS
VL: QSVLTQPPSASGTPGQRVIISCSGSSSNIGSHYVHWYQQVPGTAPKLLIYRNGQRPSGVPDRFSGFKSGTSASLAISGLRSEDEANYYCATWDDSVLFGGGTTLTVLG
notes: whole human IgG4

target: T1, MMP-3 (UniProt P08254 100-477, limits assumed); assay: cross-reactivity ELISA on coated MMP
T1 construct: also called stromelysin-1
Description: (§1) Twenty-one of the reformatted MMP-26 antibodies were tested for MMP cross reactivity by ELISA analysis. MMP-3, MMP-7, MMP-9, and MMP-12 were coated onto Immulon 2 HB 96-well plates at a concentration of 1 μg/ml for 1 hour at 37° C. The plates were blocked with PBS-T containing 5% (w/v) nonfat dry milk for thirty minutes and subsequently washed with PBS-T. Each antibody was tested for reactivity to all of the above mentioned MMPs at a concentration of 2 μg/ml with an incubation time of 1 hour. Bound antibody was detected with an HRP-conjugated anti-human secondary antibody (Table 3, NT=not tested.).

T1 sequence (P08254 100-477 limits assumed): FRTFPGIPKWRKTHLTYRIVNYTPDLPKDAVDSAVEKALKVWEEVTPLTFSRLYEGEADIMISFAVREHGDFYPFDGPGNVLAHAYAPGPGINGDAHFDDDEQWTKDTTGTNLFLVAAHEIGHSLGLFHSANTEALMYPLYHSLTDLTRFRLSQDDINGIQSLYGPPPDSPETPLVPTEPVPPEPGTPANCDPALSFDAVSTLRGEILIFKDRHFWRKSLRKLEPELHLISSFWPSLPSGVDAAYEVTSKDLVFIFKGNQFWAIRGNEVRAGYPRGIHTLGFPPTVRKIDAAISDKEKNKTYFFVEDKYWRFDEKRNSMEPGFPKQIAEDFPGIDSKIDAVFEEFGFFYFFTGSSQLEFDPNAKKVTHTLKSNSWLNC

| binding result | Binder |
| --- | --- |
| no binding (tested: 2 µg/ml) | B1 |
| no binding (tested: 2 µg/ml) | B2 |
| no binding (tested: 2 µg/ml) | B3 |
| no binding (tested: 2 µg/ml) | B4 |
| no binding (tested: 2 µg/ml) | B5 |
| no binding (tested: 2 µg/ml) | B6 |

target: T2, MMP-9 (UniProt P14780 107-707, limits assumed); assay: cross-reactivity ELISA on coated MMP
T2 construct: also called gelatinase
Description: as §1

T2 sequence (P14780 107-707 limits assumed): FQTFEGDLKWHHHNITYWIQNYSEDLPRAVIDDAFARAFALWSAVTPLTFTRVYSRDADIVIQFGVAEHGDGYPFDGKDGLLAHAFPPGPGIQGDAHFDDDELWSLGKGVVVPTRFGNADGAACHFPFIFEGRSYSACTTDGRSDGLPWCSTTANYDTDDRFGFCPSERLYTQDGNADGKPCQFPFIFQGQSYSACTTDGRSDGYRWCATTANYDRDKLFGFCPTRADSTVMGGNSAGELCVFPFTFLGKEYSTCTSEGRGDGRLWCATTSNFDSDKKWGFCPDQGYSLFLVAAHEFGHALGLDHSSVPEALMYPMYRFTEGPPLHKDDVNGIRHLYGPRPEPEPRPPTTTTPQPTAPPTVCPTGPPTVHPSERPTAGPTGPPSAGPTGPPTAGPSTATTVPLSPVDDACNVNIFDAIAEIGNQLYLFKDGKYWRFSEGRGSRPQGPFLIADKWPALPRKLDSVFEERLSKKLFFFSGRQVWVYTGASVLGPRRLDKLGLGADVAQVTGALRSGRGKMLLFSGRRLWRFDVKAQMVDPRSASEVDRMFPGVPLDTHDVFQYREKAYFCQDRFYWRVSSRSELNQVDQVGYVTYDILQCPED

| binding result | Binder |
| --- | --- |
| no binding (tested: 2 µg/ml) | B1 |
| no binding (tested: 2 µg/ml) | B2 |
| no binding (tested: 2 µg/ml) | B3 |
| no binding (tested: 2 µg/ml) | B5 |
